Paper PMC4041322, “Differences in the intrinsic immunogenicity and allergenicity of Bet v 1 and related food allergens revealed by site-directed mutagenesis” (Allergy, 2013)
Positions count from the first letter of the chain named. Numbers in names are those of the source.

B1: Mal d 1 C107S, I113K (natural protein)
chain: GVYTFENEFTSEIPPSRLFKAFVLDADNLIPKIAPQAIKQAEILEGNGGPGTIKKITFGEGSQYGYVKHRIDSIDEASYSYSYTLIEGDALTDTIEKISYETKLVASGSGSTKKSISHYHTKGNIEIKEEHVKAGKEKAHGLFKLIESYLKDHPDAYN
B2: Cor a 1 C4,82,160S (natural protein)
chain: GVFSYEDEATSVIPPARLFKSFVLDADNLIPKVAPQHFTSAENLEGNGGPGTIKKITFAEGNEFKYMKHKVEEIDHANFKYSYSIIEGGPLGHTLEKISYEIKMAAAPHGGGSILKITSKYHTKGNASINEEEIKAGKEKAAGLFKAVEAYLLAHPDAYS
B3: Cor a 1 C4,82,160S, L115K (natural protein)
chain: B2 chain with L115K
B4: Mal d 1 C107S (natural protein)
chain: B1 chain with K113I

Key:
[1] = SEC; high-performance size-exclusion chromatography (HPSEC) of the purified recombinant proteins; fractions of monomers, dimers, tri-/tetramers and high MW aggregates; details in the online Supporting Information
rCor a 1.0401 (hazelnut) = test: as above
rMal d 1.0108 (apple) = test: as above
[2] = biological target: the molecule itself; test: as above

Molecule | percent high MW aggregates [1] [%] | percent monomers [2] [%] | other results
Mal d 1 C107S | <0.5 |  | 
rCor a 1.0401 (natural protein) |  |  | percent dimers (rCor a 1.0401 (hazelnut)): 28%; percent monomers (rCor a 1.0401 (hazelnut)): 45%; percent tri-/tetramers (rCor a 1.0401 (hazelnut)): 18%
rMal d 1.0108 | 2 |  | 
rMal d 1.0108 (natural protein) |  |  | percent dimers (rMal d 1.0108 (apple)): 34%; percent monomers (rMal d 1.0108 (apple)): 56%; percent tri-/tetramers (rMal d 1.0108 (apple)): 8%
rCor a 1.0401 | 9 |  | 
B1 |  | > 99 | 
B2 |  | 93 | 
B3 |  | > 99 | 
B4 |  | > 98 | 
